This passage reports Kd results from paper PMC9848473 (2023).

Among the targets are DarB^E34R (Bacillus subtilis, UniProt O31698 1-147, E34R); DarB E74G/R75G (Bacillus subtilis, UniProt O31698 1-147, E74G | R75G); RelBs^NTD Y279A (Bacillus subtilis); RelBs^NTD K290G (Bacillus subtilis).
Common to all, as to assay: ITC
(In ITC the heat of successive injections is recorded.)

What is called Kd is the equilibrium constant for the complex coming apart. The low end stands for tighter binding, the high end for weaker binding.

B1: Bacillus subtilis Rel N-terminal domain region (RelBs^NTD; residues 1 to 373) (domain or fragment)
chain: not shown
As to B1, the equilibrium dissociation constant (Kd) in the test with DarB^E34R worked out at 10.6 µM; in the test with DarB E74G/R75G, 8.9 µM.

B2: Bacillus subtilis DarB (natural protein)
chain: MISLQSDQLLEATVGQFMIEADKVAHVQVGNNLEHALLVLTKTGYTAIPVLDPSYRLHGLIGTNMIMNSIFGLERIEFEKLDQITVEEVMLTDIPRLHINDPIMKGFGMVINNGFVCVENDEQVFEGIFTRRVVLKELNKHIRSLNK
B2: the equilibrium dissociation constant (Kd) was determined as 45.1 µM with RelBs^NTD Y279A and 4 µM in the test with RelBs^NTD K290G.
